Tests used:
[1] = biological target: HpFabZ (Helicobacter pylori) (UniProt B5Z920); assay: SPR; conditions: cited from earlier work
[2] = biological target: the molecule itself; assay: crystal structure

Chain of HpACP (B5Z6T1 whole entry): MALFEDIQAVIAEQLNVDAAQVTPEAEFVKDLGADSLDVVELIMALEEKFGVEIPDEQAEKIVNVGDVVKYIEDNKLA
Chain of HpFabZ (Helicobacter pylori) (B5Z920 whole entry): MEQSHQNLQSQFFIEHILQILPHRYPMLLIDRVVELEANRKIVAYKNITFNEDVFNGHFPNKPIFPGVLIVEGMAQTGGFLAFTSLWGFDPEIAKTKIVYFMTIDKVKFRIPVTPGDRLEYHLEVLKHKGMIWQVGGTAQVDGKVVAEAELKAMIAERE

Molecule	Kd [1] [µM]	binding result [2]
HpACP (from UniProt B5Z6T1)	0.01	–
RifDH10, the dehydratase domain from the terminal module (module 10) of the rifamycin polyketide synthase (domain or fragment, Amycolatopsis mediterranei, UniProt O54593 2569-2872, looked up) ADTASDAVSLGLAGADHPLLGAVVQLPQSDGLVFTSRLSLRSHPWLADHAVRDVVIVPGTGLVELAVRAGDEAGCPVLDELVIEAPLVVPRRGGVRVQVALGGPADDGSRTVDVFSLREDADSWLRHATGVLVPENRPRGTAAFDFAAWPPPEAKPVDLTGAYDVLADVGYGYGPTFRAVRAVWRRGSGNTTETFAEIALPEDARAEAGRFGIHPALLDAALHSTMVSAAADTESYGDEVRLPFAWNGLRLHAAGASVLRVRVAKPERDSLSLEAVDESGGLVVTLDSLVGRPVSNDQLTTAAG	–	binds

Source: paper PMC3948214 (Biochemistry, 2013)
